Test results from patent US10640547B2, “Immunotherapy against melanoma and other cancers” (IMMATICS BIOTECHNOLOGIES GMBH, priority 2016, dated 2020).

Target: HLA-A*02:01 (Homo sapiens, UniProt P04439, D140Y/D185E/D98H/E176V/E277Q/G131W/G231S/I119V/I121R/I166T/I218V/L300P/L318F/N151K/N90K/P208A/P217A/Q86G/Q94H/R138H/R169H/T345S)
Experiment: MHC binding assay (UV-ligand exchange, β2m ELISA)
Settings: MHC class I binding score; binding to HLA-A*02:01 ranged by peptide exchange yield (UV-ligand exchange, β2m ELISA)
Description: Candidate peptides for T cell based therapies according to the present invention were further tested for their MHC binding capacity (affinity). The individual peptide-MHC complexes were produced by UV-ligand exchange, where a UV-sensitive peptide is cleaved upon UV-irradiation, and exchanged with the peptide of interest as analyzed. Only peptide candidates that can effectively bind and stabilize the peptide-receptive MHC molecules prevent dissociation of the MHC complexes. To determine the yield of the exchange reaction, an ELISA was performed based on the detection of the light chain (β2m) of stabilized MHC complexes. The assay was performed as generally described in Rodenko et al. (Rodenko et al., 2006).
96 well MAXISorp plates (NUNC) were coated over night with 2 ug/ml streptavidin in PBS at room temperature, washed 4× and blocked for 1 h at 37° C. in 2% BSA containing blocking buffer. Refolded HLA-A*02:01/MLA-001 monomers served as standards, covering the range of 15-500 ng/ml. Peptide-MHC monomers of the UV-exchange reaction were diluted 100 fold in blocking buffer. Samples were incubated for 1 h at 37° C., washed four times, incubated with 2 ug/ml HRP conjugated anti-β2m for 1 h at 37° C., washed again and detected with TMB solution that is stopped with […]. Absorption was measured at 450 nm. Candidate peptides that show a high exchange yield (preferably higher than 50%, most preferred higher than 75%) are generally preferred for a generation and production of antibodies or fragments thereof, and/or T cell receptors or fragments thereof, as they show sufficient avidity to the MHC molecules and prevent dissociation of the MHC complexes.

Row | Substance | Peptide exchange
1 | 93 (LLAKAVQNV; listed as Homo sapiens) [compound 93] | +++ (>50 = +++)
2 | 94 (LLDAFSIKL; listed as Homo sapiens) [compound 94] | +++ (>50 = +++)
3 | 95 (LLDALQHEL; listed as Homo sapiens) [compound 95] | +++ (>50 = +++)
4 | 96 (LLDMSLVKL; listed as Homo sapiens) [compound 96] | +++ (>50 = +++)
5 | 97 (NLDATVTAL; listed as Homo sapiens) [compound 97] | +++ (>50 = +++)
6 | 98 (NLPNTNSILGV; listed as Homo sapiens) [compound 98] | +++ (>50 = +++)
7 | 99 (NLPSELPQL; listed as Homo sapiens) [compound 99] | +++ (>50 = +++)
8 | 100 (NLREILQNV; listed as Homo sapiens) [compound 100] | +++ (>50 = +++)
9 | 101 (NVDENVAEL; listed as Homo sapiens) [compound 101] | ++ (>20% = ++)
10 | 102 (RLPDQFSKL; listed as Homo sapiens) [compound 102] | +++ (>50 = +++)
11 | 103 (SLDAVMPHL; listed as Homo sapiens) [compound 103] | +++ (>50 = +++)
12 | 104 (SLDQIIQHL; listed as Homo sapiens) [compound 104] | +++ (>50 = +++)
13 | 105 (SLKQTVVTL; listed as Homo sapiens) [compound 105] | +++ (>50 = +++)
14 | 106 (TLSEICEFI; listed as Homo sapiens) [compound 106] | ++++ (>75% = ++++)
15 | 107 (TLVAFLQQV; listed as Homo sapiens) [compound 107] | ++++ (>75% = ++++)
16 | 108 (TVIRPLPGL; listed as Homo sapiens) [compound 108] | ++ (>20% = ++)
17 | 109 (VIDDLIQKL; listed as Homo sapiens) [compound 109] | ++ (>20% = ++)
18 | 110 (VLDTLTKVL; listed as Homo sapiens) [compound 110] | +++ (>50 = +++)
19 | 111 (VLDVSFNRL; listed as Homo sapiens) [compound 111] | +++ (>50 = +++)
20 | 112 (VLPAVLTRL; listed as Homo sapiens) [compound 112] | +++ (>50 = +++)
21 | 113 (VLYSLVSKI; listed as Homo sapiens) [compound 113] | +++ (>50 = +++)
22 | 114 (VVDDIVSKL; listed as Homo sapiens) [compound 114] | ++ (>20% = ++)
23 | 115 (YIDDVFMGL; listed as Homo sapiens) [compound 115] | +++ (>50 = +++)
24 | 117 (KQQASQVLV; listed as Homo sapiens) [compound 117] | +++ (>50 = +++)

Row | Substance | Peptide exchange
25 | 118 (TMIEICEKL; listed as Homo sapiens) [compound 118] | ++++ (>75% = ++++)
26 | 119 (SLGLGFISRV; listed as Homo sapiens) [compound 119] | +++ (>50 = +++)
27 | 120 (QLMEGKVVL; listed as Homo sapiens) [compound 120] | ++++ (>75% = ++++)
28 | 122 (YVDDFGVSV; listed as Homo sapiens) [compound 122] | +++ (>50 = +++)
29 | 123 (LLGEGIPSA; listed as Homo sapiens) [compound 123] | ++++ (>75% = ++++)
30 | 124 (FLPQKIIYL; listed as Homo sapiens) [compound 124] | ++++ (>75% = ++++)
31 | 125 (YLFAFLNHL; listed as Homo sapiens) [compound 125] | ++++ (>75% = ++++)
32 | 126 (SLIDFVVTC; listed as Homo sapiens) [compound 126] | +++ (>50 = +++)
33 | 127 (TLISDIEAVKA; listed as Homo sapiens) [compound 127] | +++ (>50 = +++)
34 | 129 (VLPDDLSGV; listed as Homo sapiens) [compound 129] | +++ (>50 = +++)
35 | 130 (GLVDVLYTA; listed as Homo sapiens) [compound 130] | +++ (>50 = +++)
36 | 131 (FVDPNGKISL; listed as Homo sapiens) [compound 131] | +++ (>50 = +++)
37 | 132 (FLDASGAKL; listed as Homo sapiens) [compound 132] | ++++ (>75% = ++++)
38 | 134 (LLDEVLHTM; listed as Homo sapiens) [compound 134] | ++++ (>75% = ++++)
39 | 135 (FLDDQETRL; listed as Homo sapiens) [compound 135] | +++ (>50 = +++)
40 | 136 (FAYDGKDYIAL; listed as Homo sapiens) [compound 136] | +++ (>50 = +++)
41 | 137 (ILPSNLLTV; listed as Homo sapiens) [compound 137] | +++ (>50 = +++)
42 | 138 (YLDKTFYNL; listed as Homo sapiens) [compound 138] | +++ (>50 = +++)
43 | 139 (AVDATVNQV; listed as Homo sapiens) [compound 139] | +++ (>50 = +++)
44 | 140 (RLEAYLARV; listed as Homo sapiens) [compound 140] | +++ (>50 = +++)
45 | 141 (YVIDPIKGL; listed as Homo sapiens) [compound 141] | +++ (>50 = +++)
46 | 142 (FVDGSAIQV; listed as Homo sapiens) [compound 142] | +++ (>50 = +++)
47 | 143 (ILDDSALYL; listed as Homo sapiens) [compound 143] | ++++ (>75% = ++++)
48 | 144 (SVDEVEISV; listed as Homo sapiens) [compound 144] | +++ (>50 = +++)

Row | Substance | Peptide exchange
49 | 145 (TLPNIYVTL; listed as Homo sapiens) [compound 145] | +++ (>50 = +++)
50 | 146 (GVGPVPARA; listed as Homo sapiens) [compound 146] | +++ (>50 = +++)
51 | 147 (ILDDQTNKL; listed as Homo sapiens) [compound 147] | +++ (>50 = +++)
52 | 148 (TLKDIVQTV; listed as Homo sapiens) [compound 148] | +++ (>50 = +++)
53 | 149 (YLDTFALKL; listed as Homo sapiens) [compound 149] | ++++ (>75% = ++++)
54 | 150 (KLFPSPLQTL; listed as Homo sapiens) [compound 150] | ++++ (>75% = ++++)
55 | 151 (FLGEPASYLYL; listed as Homo sapiens) [compound 151] | ++++ (>75% = ++++)
56 | 152 (IMEDFTTFL; listed as Homo sapiens) [compound 152] | ++++ (>75% = ++++)
57 | 153 (RLDEVSREL; listed as Homo sapiens) [compound 153] | +++ (>50 = +++)
58 | 154 (TLGTATFTV; listed as Homo sapiens) [compound 154] | ++++ (>75% = ++++)
59 | 156 (ALMDTDGSGKLNL; listed as Homo sapiens) [compound 156] | +++ (>50 = +++)
60 | 157 (HLFETISQA; listed as Homo sapiens) [compound 157] | +++ (>50 = +++)
61 | 158 (KLIPSIIVL; listed as Homo sapiens) [compound 158] | +++ (>50 = +++)
62 | 159 (TILATVPLV; listed as Homo sapiens) [compound 159] | ++++ (>75% = ++++)
63 | 160 (ALDDISESI; listed as Homo sapiens) [compound 160] | ++++ (>75% = ++++)
64 | 161 (GLCDSIITI; listed as Homo sapiens) [compound 161] | ++++ (>75% = ++++)
65 | 162 (TLDGNPFLV; listed as Homo sapiens) [compound 162] | +++ (>50 = +++)
66 | 163 (RLMANPEALKI; listed as Homo sapiens) [compound 163] | +++ (>50 = +++)
67 | 164 (ALFFQLVDV; listed as Homo sapiens) [compound 164] | ++ (>20% = ++)
68 | 165 (ALIEVLQPLI; listed as Homo sapiens) [compound 165] | ++++ (>75% = ++++)
69 | 166 (SIIPPLFTV; listed as Homo sapiens) [compound 166] | ++++ (>75% = ++++)
70 | 167 (KVLGDVIEV; listed as Homo sapiens) [compound 167] | ++++ (>75% = ++++)
71 | 168 (KLLAATLLL; listed as Homo sapiens) [compound 168] | ++++ (>75% = ++++)
72 | 169 (TLLESIQHV; listed as Homo sapiens) [compound 169] | ++++ (>75% = ++++)
